T1: full-length human TIGIT on CHO-K1 cells (CHO-K1 human TIGIT) (human, UniProt Q495A1 22-244)
T1 construct: NCBI XP_024309156.1; entry includes the signal peptide; also called high expression strain 1D2; medium expression strain 2D10
T1 sequence: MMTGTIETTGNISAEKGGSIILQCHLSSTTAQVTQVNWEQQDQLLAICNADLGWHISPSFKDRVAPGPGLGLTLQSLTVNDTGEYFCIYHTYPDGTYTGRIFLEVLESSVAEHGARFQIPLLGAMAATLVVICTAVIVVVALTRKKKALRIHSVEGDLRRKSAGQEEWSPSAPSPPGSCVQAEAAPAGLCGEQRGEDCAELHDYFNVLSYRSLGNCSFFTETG

T2: human TIGIT ECD-mFc (fusion protein of extracellular domain of human TIGIT and mouse IgG2a Fc fragment) (human)
T2 chain: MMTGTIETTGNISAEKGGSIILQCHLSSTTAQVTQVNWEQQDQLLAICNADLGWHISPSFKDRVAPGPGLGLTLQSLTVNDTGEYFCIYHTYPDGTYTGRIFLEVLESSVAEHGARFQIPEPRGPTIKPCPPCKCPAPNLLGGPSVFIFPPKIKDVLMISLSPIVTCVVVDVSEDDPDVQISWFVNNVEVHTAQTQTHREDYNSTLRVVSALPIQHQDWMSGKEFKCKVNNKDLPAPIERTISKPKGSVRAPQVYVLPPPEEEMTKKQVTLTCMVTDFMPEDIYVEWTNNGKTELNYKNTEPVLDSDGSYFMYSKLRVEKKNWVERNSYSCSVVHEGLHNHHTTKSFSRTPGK

T3: human TIGIT ECD-his (fusion protein of extracellular domain of human TIGIT and His-tag) (human)
T3 construct: entry includes the signal peptide, limits not readable here
T3 chain: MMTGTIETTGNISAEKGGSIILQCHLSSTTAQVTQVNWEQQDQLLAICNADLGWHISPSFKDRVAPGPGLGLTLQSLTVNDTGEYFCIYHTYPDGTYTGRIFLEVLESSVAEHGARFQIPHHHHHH


Legend:
[1] = molecular target: T1, full-length human TIGIT on CHO-K1 cells …; experiment: FACS, low expression strain
Description: (§1) The collected cells were washed once with PBS (Hyclone, CAT #SH30256), resuspended to 2×10⁵/50 μL with 1% BSA-PBS. The antibodies were diluted to 80 nM with 1% BSA-PBS (diluted by 3-fold serial dilution for 12 concentration points). The 50 μL cells were then mixed with 50 μL diluted antibodies, and then incubated at 4° C. for 60 minutes. […] After washing twice with PBS, the cell samples were resuspended with 1% BSA-PBS, 100 μL/well and then analyzed by flow cytometry (BD, Canto II). […] [0298] (c) The effect of anti-TIGIT chimeric antibodies blocking the interaction between Bio-CD155-His and CHO-K1 human TIGIT high expression cell strains detected by FACS

[2] = molecular target: T1, full-length human TIGIT on CHO-K1 cells …; experiment: FACS, medium expression strain
Description: as §1

[3] = molecular target: T4, cynomolgus monkey TIGIT ECD-mFc (extracellular domain of cynomolgus monkey TIGIT and mouse IgG2a Fc fragment) (cynomolgus monkey); experiment: ELISA
T4 construct: entry includes the signal peptide, limits not readable here
Description: (§2) After discarding the coating solution, the plate was added with 5% skim milk powder (Sangon Biotech, CAT #A600669-0250)-PBS, 250 μL/well, and incubated at 37° C. for 2-4 hours. […] The enzyme-labeled plate was then washed with 0.05% Tween 20-PBS for 3 times on the Microplate Washer, added with tested antibodies diluted to 13 nM with 1% BSA (diluted by 3-fold serial dilution for 12 concentration points), 50 μL/well, and incubated at 37° C. for 1.5-2 hours. The plate was washed with 0.05% Tween 20-PBS for 3 times on the Microplate Washer, then added with HRP enzyme-labeled antibodies (Merck, CAT #AP113P) diluted with 1% BSA (Sangon Biotech, CAT #A500023-0100)-PBS at a dilution ratio of 1:5000, 50 μL/well, and incubated at 37° C. for 1 hour. After washing 3 times with 0.05% Tween 20-PBS on the Microplate Washer, the plate was added with TMB chromogenic solution (KPL, CAT #52-00-03), 50 μL/well, and incubated at room temperature for 7-10 minutes. 1M HCL, 50 μL/well, was then added into the plate to terminate the reaction, and the OD450 nm was read by a microplate reader (Biotek, Powerwave HT). […] (b) The binding activity of anti-TIGIT chimeric antibodies to CHO-K1 human TIGIT (cells with high, medium and low expression levels) and CHO-KI cynomolgus monkey TIGIT detected by FACS.

[4] = molecular target: T2, human TIGIT ECD-mFc (fusion protein of …); experiment: ELISA
Description: as §2

[5] = molecular target: T1, full-length human TIGIT on CHO-K1 cells …; experiment: FACS, high expression strain
Description: as §1

[6] = molecular target: T3, human TIGIT ECD-his (fusion protein of …); experiment: BIAcore kinetics
[7] = molecular target: T2, human TIGIT ECD-mFc (fusion protein of …); experiment: FACS, competition: hTIGIT ECD-mFc to CHO-K1 CD155
Description: The collected CHO-K1 CD155 cells were washed once with PBS (Hyclone, CAT #SH30256) and resuspended to 2×10⁵/40 μL with 1% BSA-PBS. The tested antibodies were diluted to 600 nM with 1% BSA-PBS (diluted by 2.5-fold serial dilution for 12 concentration points). The TIGIT ECD-mFc was diluted with 1% BSA-PBS to 6 μg/mL. The 40 μL cells were then mixed with 40 μL diluted antibodies and 40 μL diluted TIGIT ECD-mFc, and then incubated at 4° C. for 60 minutes. […] The cell samples were washed twice with PBS, resuspended to 100 μL/well with 1% BSA-PBS and then analyzed by flow cytometry (BD, Canto II).

[8] = molecular target: T5, full-length cynomolgus monkey TIGIT on CHO-K1 cells (CHO-K1 cynomolgus monkey TIGIT) (cynomolgus monkey); experiment: FACS
T5 construct: NCBI XP_015300911.1; also called cynomolgus monkey TIGIT cells
Description: as §1

[9] = molecular target: T1, full-length human TIGIT on CHO-K1 cells …; experiment: FACS, competition: Bio-CD155-His to CHO-K1 human TIGIT
Description: The collected cells were washed once with PBS (Hyclone, CAT #SH30256), resuspended to 2×10⁵/40 μL with 1% BSA-PBS. The antibodies were diluted to 210 nM with 1% BSA-PBS (diluted by 3-fold serial dilution for 12 concentration points). […] The 40 μL cells were then mixed with 40 μL diluted antibodies and 40 μL diluted Bio-CD155-His, and then incubated at 4° C. for 60 minutes. The cells were washed twice with PBS, resuspended with APC labeled streptavidin (dilution ratio 1:1700, Biolegend, 405243), 100 μL/well, and incubated at 4° C. for 40 minutes. The cell samples were washed twice with PBS, resuspended with 1% BSA-PBS, 100 μL/well and then analyzed by flow cytometry (BD, Canto II). […] [0300] (d) The effect of anti-TIGIT chimeric antibodies blocking the interaction between TIGIT ECD-mFc and CHO-K1 CD155 detected by FACS

T4 sequence (chain, as listed by the source limits assumed): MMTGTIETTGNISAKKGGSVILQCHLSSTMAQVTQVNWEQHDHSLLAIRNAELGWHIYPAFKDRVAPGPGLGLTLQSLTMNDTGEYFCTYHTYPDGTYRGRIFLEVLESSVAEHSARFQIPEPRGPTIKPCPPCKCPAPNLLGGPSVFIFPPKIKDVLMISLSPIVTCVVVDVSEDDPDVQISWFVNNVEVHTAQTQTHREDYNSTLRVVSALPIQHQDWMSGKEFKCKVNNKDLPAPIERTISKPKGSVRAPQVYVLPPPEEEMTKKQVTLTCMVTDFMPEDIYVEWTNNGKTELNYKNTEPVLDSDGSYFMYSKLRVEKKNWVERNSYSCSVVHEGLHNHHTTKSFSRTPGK
T5 sequence (chain, as listed by the source limits assumed): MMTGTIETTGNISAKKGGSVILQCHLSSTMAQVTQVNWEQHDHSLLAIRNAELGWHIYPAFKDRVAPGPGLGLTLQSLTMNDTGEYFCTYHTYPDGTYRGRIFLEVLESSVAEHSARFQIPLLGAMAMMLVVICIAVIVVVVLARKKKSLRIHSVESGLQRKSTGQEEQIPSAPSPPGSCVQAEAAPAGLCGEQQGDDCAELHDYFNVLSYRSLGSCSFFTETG

Row | EC50 [1] | EC50 [2] | EC50 [3] | EC50 [4] | EC50 [5] | Kd [6] | koff [6] | kon [6] | IC50 [7] | EC50 [8] | IC50 [9] | Binder
1 | 0.352 nM | 0.394 nM | 0.0163 nM | 0.0145 nM | 0.517 nM | 0.3 nM | 0.000456 s⁻¹ | 1.52e+06 M⁻¹ s⁻¹ | 0.582 nM | 0.0359 nM | 0.384 nM | TIGIT-CHI-070 (antibody, V domains shown, human-mouse chimeric antibody) VH: QVQLQQPGTELVKPGASVKLSCRASGYTFTNYYMHWVKQRPGRGLEWIGRIDPDSGGSKYNEKFKSKATLTVDKLSSTAYMQLSSLTSEDSAVYYCAREGHYGFYSDYWGQGTTLTVSS VL: DIQMTQSPASLSASVGETVTITCRVSENIYSYLAWYQQKQGKSPQLLVYNAKTLAEGVPSRFSGSGSGTQFSLKINSLQPEDFGNYYCQHHYGNPLTFGAGTKLDLK
2 | 0.218 nM | 0.29 nM | 0.0165 nM | 0.0181 nM | 0.299 nM | 0.0697 nM | 0.000315 s⁻¹ | 4.53e+06 M⁻¹ s⁻¹ | 0.368 nM | 0.029 nM | 0.152 nM | TIGIT-CHI-002 (antibody, V domains shown, human-mouse chimeric antibody) VH: EVQLQESGPGLAKPSQTLSLACSVTGYSITSDSWNWIRKFPGNKLEYMGYISYSGNTYYNPSLKSRISITRDTSKNQFYLQLNSVTTEDTATYYCARLDFSNYGGAVDYWGQGTSVTVSS VL: DIVMTQSHTFMSTSVGDRVSITCKASQNVRTAVAWYQQKPGQSPKLMIYSASYRYTGVPDRFTGSGSGTDFTFTISSVQAEDLAVYYCQQYYTTPWTFGGGAKLEIQ
3 | 0.329 nM | 0.481 nM | 0.0389 nM | 0.0167 nM | 0.502 nM | 0.132 nM | 0.00017 s⁻¹ | 1.29e+06 M⁻¹ s⁻¹ | 0.572 nM | 0.0731 nM | 0.246 nM | TIGIT-CHI-006 (antibody, V domains shown, human-mouse chimeric antibody) VH: EVQLQESGPGLAKPSQTPSLTCSVTGYSMTSDYWNWIRKFPGNKLEYMGYISYSGRTYYNPSLKSRISITRDTSKNQFYLQLNSVTTEDTATYYCARGDYSNYGGAMYDWGQGTSVTVSS VL: DIVMTQSHKFMSTSVGDRVSITCRASQGVSTTIAWYQQKPGQSPKLLIYSASYRYTGVPDRFTGSGSGTDFTFTISGVQAEDLAVYYCQQYYSSPFTFGGGTKLEIK
4 | 0.229 nM | 0.316 nM | 0.017 nM | 0.0173 nM | 0.342 nM | 0.0536 nM | 0.000192 s⁻¹ | 3.59e+06 M⁻¹ s⁻¹ | 0.363 nM | 0.0264 nM | 0.158 nM | TIGIT-CHI-005 (antibody, V domains shown, human-mouse chimeric antibody) VH: QVQLQQSGAELVRPGTSVKVSCKASGYAFTNYLIEWVKQRPGQGLEWIGVINPGSGGTNYKEKFKGKATLTADKSSSTAYMQLSSLTSEDSAVYFCARGEYFFFDYWGQGTTLTVSS VL: DIVMTQSHKFMSTSVGDRVSITCKASQHVSNGVAWYQHKPGQSPKLLIYSASYRYTGVPDRFTGTGSGTDFTFTISSVQAEDLAVYYCQQHYNTPHTFGGGTKLEIK
